Reference: patent US20190153061A1
Blank lines part the entries; values can stand above or below the binder they belong to.

Target: B-cell maturation antigen (BCMA) expressed on cells (human), Q02223
Assay: cell-based or functional assay

B-cell maturation antigen (BCMA) expressed on cells (human), Q02223, sequence (Q02223 whole entry): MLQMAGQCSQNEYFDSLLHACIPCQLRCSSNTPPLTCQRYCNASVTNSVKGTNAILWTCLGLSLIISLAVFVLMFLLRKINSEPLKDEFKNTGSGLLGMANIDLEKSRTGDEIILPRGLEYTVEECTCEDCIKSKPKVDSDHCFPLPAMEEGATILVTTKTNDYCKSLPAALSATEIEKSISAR

JNL binding assay, ratio to K562; K562-BCMA: 3.17
JNL binding assay, ratio to K562; NCI-H929: 2.78
JNL binding assay, ratio to K562; RPMI 8226: 3.36
Proliferation, CD3 ratio to no target; K562-BCMA: 2.9
Proliferation, CD3 ratio to no target; KMS11-luc: 2.76
Proliferation, CD3 ratio to no target; NCI-H929: 2.98
Proliferation, CD3 ratio to no target; RPMI 8226: 3.27
Proliferation, CD4 ratio to no target; K562-BCMA: 3.42
Proliferation, CD4 ratio to no target; KMS11-luc: 2.94
Proliferation, CD4 ratio to no target; NCI-H929: 3.41
Proliferation, CD4 ratio to no target; RPMI 8226: 3.66
Proliferation, CD8 ratio to no target; K562-BCMA: 1.51
Proliferation, CD8 ratio to no target; KMS11-luc: 2.11
Proliferation, CD8 ratio to no target; NCI-H929: 1.76
Proliferation, CD8 ratio to no target; RPMI 8226: 2.12
B1: BCMA-12 CAR (139111) (protein)
chain: EVQLLESGGGLVQPGGSLRLSCAVSGFALSNHGMSWVRRAPGKGLEWVSGIVYSGSTYYAASVKGRFTISRDNSRNTLYLQMNSLRPEDTAIYYCSAHGGESDVWGQGTTVTVSSASGGGGSGGRASGGGGSDIVMTQTPLSLSVTPGQPASISCKSSQSLLRNDGKTPLYWYLQKAGQPPQLLIYEVSNRFSGVPDRFSGSGSGTDFTLKISRVEAEDVGAYYCMQNIQFPSFGGGTKLEIKTTTPAPRPPTPAPTIASQPLSLRPEACRPAAGGAVHTRGLDFACDIYIWAPLAGTCGVLLLSLVITLYCKRGRKKLLYIFKQPFMRPVQTTQEEDGCSCRFPEEEEGGCELRVKFSRSADAPAYKQGQNQLYNELNLGRREEYDVLDKRRGRDPEMGGKPRRKNPQEGLYNELQKDKMAEAYSEIGMKGERRRGKGHDGLYQGLSTATKDTYDALHMQALPPR
Cell killing EC50; KMS11-luc: 0.22 not printed

JNL binding assay, ratio to K562; K562-BCMA: 3.74
JNL binding assay, ratio to K562; NCI-H929: 2.68
JNL binding assay, ratio to K562; RPMI 8226: 3.66
Proliferation, CD3 ratio to no target; K562-BCMA: 3.47
Proliferation, CD3 ratio to no target; KMS11-luc: 3.2
Proliferation, CD3 ratio to no target; NCI-H929: 3.46
Proliferation, CD3 ratio to no target; RPMI 8226: 3.48
Proliferation, CD4 ratio to no target; K562-BCMA: 5.4
Proliferation, CD4 ratio to no target; KMS11-luc: 3.84
Proliferation, CD4 ratio to no target; NCI-H929: 5.05
Proliferation, CD4 ratio to no target; RPMI 8226: 4.44
Proliferation, CD8 ratio to no target; K562-BCMA: 2.34
Proliferation, CD8 ratio to no target; KMS11-luc: 2.79
Proliferation, CD8 ratio to no target; NCI-H929: 2.53
Proliferation, CD8 ratio to no target; RPMI 8226: 2.86
B2: BCMA-13 CAR (139112) (protein)
chain: QVQLVESGGGLVQPGGSLRLSCAVSGFALSNHGMSWVRRAPGKGLEWVSGIVYSGSTYYAASVKGRFTISRDNSRNTLYLQMNSLRPEDTAIYYCSAHGGESDVWGQGTTVTVSSASGGGGSGGRASGGGGSDIRLTQSPSPLSASVGDRVTITCQASEDINKFLNWYHQTPGKAPKLLIYDASTLQTGVPSRFSGSGSGTDFTLTINSLQPEDIGTYYCQQYESLPLTFGGGTKVEIKTTTPAPRPPTPAPTIASQPLSLRPEACRPAAGGAVHTRGLDFACDIYIWAPLAGTCGVLLLSLVITLYCKRGRKKLLYIFKQPFMRPVQTTQEEDGCSCRFPEEEEGGCELRVKFSRSADAPAYKQGQNQLYNELNLGRREEYDVLDKRRGRDPEMGGKPRRKNPQEGLYNELQKDKMAEAYSEIGMKGERRRGKGHDGLYQGLSTATKDTYDALHMQALPPR
Cell killing EC50; KMS11-luc: 0.11 not printed

JNL binding assay, ratio to K562; K562-BCMA: 2.91
JNL binding assay, ratio to K562; NCI-H929: 2.79
JNL binding assay, ratio to K562; RPMI 8226: 3.49
Proliferation, CD3 ratio to no target; K562-BCMA: 3.94
Proliferation, CD3 ratio to no target; KMS11-luc: 3.51
Proliferation, CD3 ratio to no target; NCI-H929: 4.08
Proliferation, CD3 ratio to no target; RPMI 8226: 3.73
Proliferation, CD4 ratio to no target; K562-BCMA: 4.87
Proliferation, CD4 ratio to no target; KMS11-luc: 3.82
Proliferation, CD4 ratio to no target; NCI-H929: 4.82
Proliferation, CD4 ratio to no target; RPMI 8226: 4.24
Proliferation, CD8 ratio to no target; K562-BCMA: 1.89
Proliferation, CD8 ratio to no target; KMS11-luc: 2.73
Proliferation, CD8 ratio to no target; NCI-H929: 2.42
Proliferation, CD8 ratio to no target; RPMI 8226: 2.51
B3: BCMA-15 CAR (139114) (protein)
chain: EVQLVESGGGLVQPGGSLRLSCAVSGFALSNHGMSWVRRAPGKGLEWVSGIVYSGSTYYAASVKGRFTISRDNSRNTLYLQMNSLRPEDTAIYYCSAHGGESDVWGQGTTVTVSSASGGGGSGGRASGGGGSEIVLTQSPGTLSLSPGERATLSCRASQSIGSSSLAWYQQKPGQAPRLLMYGASSRASGIPDRFSGSGSGTDFTLTISRLEPEDFAVYYCQQYAGSPPFTFGQGTKVEIKTTTPAPRPPTPAPTIASQPLSLRPEACRPAAGGAVHTRGLDFACDIYIWAPLAGTCGVLLLSLVITLYCKRGRKKLLYIFKQPFMRPVQTTQEEDGCSCRFPEEEEGGCELRVKFSRSADAPAYKQGQNQLYNELNLGRREEYDVLDKRRGRDPEMGGKPRRKNPQEGLYNELQKDKMAEAYSEIGMKGERRRGKGHDGLYQGLSTATKDTYDALHMQALPPR
Cell killing EC50; KMS11-luc: 0.11 not printed
